Experimental data from FireProtDB (doi:10.1093/protein/7.6.777).

Settings: Hordeum vulgare, whole UniProt chain shown
[1] = pH 3, Thermal, DSC, glycine-HCl 10 mM
[2] = pH 6.25, 25 °C, GdnHCl, Fluorescence, MES 50 mM

B1: Subtilisin-chymotrypsin inhibitor-2A wild type, P01053 (protein)
chain: MSSVEKKPEGVNTGAGDRHNLKTEWPELVGKSVEEAKKVILQDKPEAQIIVLPVGTIVTMEYRIDRVRLFVDKLDNIAQVPRVG
With B1 the Tm [1] was 63.8 °C, the “unfolding enthalpy (calorimetric)” value [1] was 60 kcal/mol and the denaturant m value [2] was 1.9 kcal/mol/M. The “denaturant midpoint (higher = more stable)” value [2] was 4 M and the unfolding free energy [2] was 7.61 kcal/mol.
